Laboratory results: US11932672B2, “Fermentation process” (Syngulon S.A., priority 2017, dated 2024)
“Also recorded” adds a separate entry of the source.

Assays:
Candida species = details: cited from earlier work
[1] = tested on: fungal microbial organism; details: cited from earlier work
bacteriocin C7 = test: Resistance to C7 conferred by plasmid-expressed immunity gene (vector selection marker); format: cell-based; details: gene expressed from plasmid (pBACT2.0, pBACT5.0)
Excerpt: The vector used is pBACT2.0 (FIG. 6, SEQ ID NO: 713).
(§1) The vector used is pBACT5.0 (FIG. 5, SEQ ID NO: 712).

[2] = tested on: pathogenic Gram-positive and Gram-negative bacteria; details: cited from earlier work
bacteriocin B17 = test: Resistance to B17 conferred by plasmid-expressed immunity gene (selection on plates containing B17); format: cell-based, BL21(DE3)
Excerpt: We have separated genes from B17 immunity structures and cloned these into vectors behind an inducible promoter (Ptac).
We have separated the genes from B17 immunity structures and cloned them into vectors behind an inducible promoter (Ptac).
We inserted the B17 McbG immunity structure gene and cloned the latter into vectors behind the weak constitutive promoter (P24). A second construct was generated with a P24 LacO hybrid promoter which is an inducible promoter repressed in the presence of lad and active in presence of IPTG.
The BL21(DE3) strain was transformed with vector pMcbG1.0 or pMcbG1.1 (see FIG. 3 or 4). After transformation, transformants were selected on plates containing B17. Isolated colonies were re-grown and the plasmid they contained was analyzed by gel electrophoresis after treatment with relevant restriction enzymes.

ColV = test: Resistance to ColV conferred by plasmid-expressed immunity gene (vector selection marker); format: cell-based; details: gene expressed from plasmid pBACT5.0
Excerpt: as §1

Enterococcus faecalis peptide: Enterococcus faecalis peptide, SEQ ID NO: 1 (WLPPAGLLGRCGRWFRPWLLWLQSGAQYKWLGNLFGLGPK; listed as Enterococcus faecalis)
neutralizing activity against Candida species (Candida species): neutralizing activity

botrycidin AJ1316
antifungal activities [1]: antifungal activities

B1: MccE: immunity to the bacteriocin C7, nucleic acid SEQ ID NO: 700 (protein, listed as Escherichia coli)
chain: MAQKITPSKIVKHARELIIKGIESGDNSFVIFDVDGALERLEHYRCQLKSFFPNSSIAYSYKSNNLAQWCQIISGKGLYAEVCSVDEMNLAKRDGFNRIVFDGPLKKTSELLKAIEIGALIEVDNIDECKRLNELCKLHKLTCRIHLRLSHYYDDNLSRFGLSESEAINLLEMLISKSEYLILDGFHLHVGSNLPNAEKICKAVIQYHELILRYMPDDGTLNLGSGIPADSFSASSDNPTPCPEVFFSSIYDTIKNCFGTVCDKWNYIFEPGRHLVEDFGYFIGKVISTKNRYGVKVAQTNIGINWIPSIRNWDHSFTLFHNHNHISDDKSDEYIIAGFNCFECDCLFPSVILPSNLSDYLFSVRGCGAYDMQTGNQWTRNLYAVYTITNDVVNISRIHRRELDFRKYDVSLTPSGIKVNDEITLLYPALKYAEELYLLINQNKINFIKSMAWPAFVNNISDSVSFIEQSMIDNQNEKALILFIKYKTKIAGVVSFNIIDHANKTAYIGYWLGANFQGKGIVTNAINKLIQEYGDSGVIKRFVIKCIVDNKKSNATALRCGFTLEGVLQKAEILNGVSYDQNIYSKVIG
modifications: gene (1)..(1770) MccE gene
resistance to bacteriocin C7 (bacteriocin C7): give resistance

B2: C-terminal part of MccE: C-terminal portion of MccE, SEQ ID NO: 701 (amino acid SEQ ID NO: 706) (protein)
chain: FRKYDVSLTPSGIKVNDEITLLYPALKYAEELYLLINQNKINFIKSMAWPAFVNNISDSVSFIEQSMIDNQNEKALILFIKYKTKIAGVVSFNIIDHANKTAYIGYWLGANFQGKGIVTNAINKLIQEYGDSGVIKRFVIKCIVDNKKSNATALRCGFTLEGVLQKAEILNGVSYDQNIYSKVIG
modifications: C-terminal part of MccE protein
resistance to bacteriocin C7 (bacteriocin C7): sufficient to confer resistance; also recorded: give resistance
resistance to bacteriocin C7 (bacteriocin C7; listed as truncated MccE): give resistance

B3: Ent35-MccV: hybrid bacteriocin: N-terminal glycine, Enterocin CRL35, three-glycine linker, C-terminal Microcin V, SEQ ID NO: 3 (protein)
chain: GKYYGNGVSCNKKGCSVDWGRAIGIIGNNSAANLATGGAAGWKSGGGASGRDIAMAIGTLSGQFVAGGIGAAAGGVAGGAIYDYASTHKPNPAMSPSGLGGTIKQKPEGIPSEAWNYAAGRLCNWSPNNLSDVCL
modifications: Hybrid bacteriocin Ent35-MccV
antimicrobial activity [2]: displays antimicrobial activity

B4: McbE/F: pumps of the B17 immunity structure, construct pSyn2-McbE/F SEQ ID NO: 703 (protein, UniProt P05528 1-241; P05529 1-247, looked up)
Protein McbE: MVTLKMAIIFLMEQIRTPFSLIWTIMSPTVLFFFLHFNEIELHYGDTAWLGKQISWFVGYISFSVVLFNYCLYLVGRRESGFIATFVHNMDGRLLFIRSQLIASLIMSILYVFFFILVVLTGFQASPDYQIVMIILKSIYINAFMMVSLTFMASFRVTFQTASTIYSVLITVCMVSGIVSLKYNEGIVYWINQVNPIAIYSTILQSDQELSLMTIFFYSIMLIISIISALTFKTEPVWSSQ
Protein McbF: MTIPLLEINSLSFSYKVNLPPVFNNLSLKIEQGELIGLLGENPAGKTTLFNLIRGGVSNYEGTLKRNFSGGELVSLPQVINLSGTLRNEEVLDLICCFNKLTKKQAWTDVNHKWNDNFFIRYDKIRRKRTYTVSYGEKRWLIISLMVTLCKNARLFLLDEPTVGIDIQYRMMLWELINKITADGKTVFFSTHIFDELTRDKIPFYMLSKNSINRYSDMSDFIQSNNETTQKRHLLKKLWEQETDTWI
toxicity of expression to the strain (bacteriocin B17; pSyn2-McbE/F under Ptac): toxic

B5: McbG: immunity to the bacteriocin B17, nucleic acid SEQ ID NO: 699 (protein, listed as Escherichia coli)
chain: MDIIEKRITKRHLSESELSGVNYYNCIFERIQLDNFNFRDCEFEKCRFVNCSIKNLKLNFFKLIDCEFKDCLLQGVNAADIMFPCTFSLVNCDLRFVDFISLRLQKSIFLSCRFRDCLFEETDLRKSDFTGSEFNNTEFRHSDLSHCDFSMTEGLDINPEINRILSIKIPQEAGLKILKRMGVVVGG
modifications: gene (1)..(564) McbG gene
resistance to B17 (bacteriocin B17; gene expressed from plasmid, Ptac not induced, weak P24 promoter or pBACT2.0): sufficient to give the phenotype of resistance

B6: Cvi: immunity gene giving resistance to ColV, SEQ ID NO: 709 (protein, listed as Escherichia coli)
chain: MDRKRTKLELLFAFIINATAIYIALAIYDCVFRGKDFLSMHTFCFSALMSAICYFVGDNYYSISDKIKRRSYENSDSK
modifications: gene (1)..(237) Cvi
resistance to ColV (ColV): give resistance
